To fix the notation:
B2: FITC-labeled C-terminal peptide of ACE2(796–805) (peptide)
peptide: {FITC}-QNTDDVQTSF-OH
B5: FITC-labeled ACE2(787–798) peptide (peptide)
peptide: {FITC}-SKGENNPGFQNT-NH2

Targets include MAP1LC3C ATG8 (2–125) (human, UniProt Q9BXW4 2-125); SCRIB PDZ1 (718–814) (human, UniProt Q14160 718-814); MAGI1 PDZ1 (1–106) (human, UniProt Q96QZ7 1-106); LYN SH2 (106–213) (human, UniProt P07948 106-213); TLN2 PTB (309–401) (human, UniProt Q9Y4G6 309-401).
Holding throughout (assay): fluorescence polarisation
A general note: In fluorescence polarisation assays a small probe gives low polarisation when free and higher when bound to something large.

Another assay concerns the target T1, AP2 μ2 (160–435) (human, UniProt Q96CW1 160-435).
T1 sequence: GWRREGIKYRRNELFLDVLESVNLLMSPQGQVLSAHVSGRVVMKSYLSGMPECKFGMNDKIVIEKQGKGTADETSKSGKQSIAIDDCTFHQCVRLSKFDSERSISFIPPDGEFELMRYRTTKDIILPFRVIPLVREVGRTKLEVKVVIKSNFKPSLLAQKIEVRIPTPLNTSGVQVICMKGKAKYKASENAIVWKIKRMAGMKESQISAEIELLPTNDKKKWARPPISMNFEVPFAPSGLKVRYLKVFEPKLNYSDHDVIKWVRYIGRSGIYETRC

In assay [1] the target is B2.
For assay [2], the target named is T2, MAP1LC3B ATG8 (2–119) (human, UniProt Q9GZQ8 2-119).
For assay [3], the target named is T3, […]2 ATG8 (2–115) (human, UniProt P60520 2-115).
The target of the next assay is T4, TAX1BP3 PDZ (7–124) (human, UniProt O14907 7-124).
T4 sequence: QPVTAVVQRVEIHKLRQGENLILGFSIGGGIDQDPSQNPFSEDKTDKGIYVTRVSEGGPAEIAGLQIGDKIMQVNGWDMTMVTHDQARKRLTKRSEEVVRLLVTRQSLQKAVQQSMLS

Another assay has as its target T5, SNTA1 PDZ (84–171) (human, UniProt Q13424 84-171).
T5 sequence: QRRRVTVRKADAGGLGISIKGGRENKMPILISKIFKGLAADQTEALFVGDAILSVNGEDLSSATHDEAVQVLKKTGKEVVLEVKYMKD

Assay [4] has as its target T2, MAP1LC3B ATG8 (2–119). The source holds these as a separate data set.
In assay [5] the target is T3, […]2 ATG8 (2–115). This is another data set of the same source.
In assay [6] the target is B5.
The target in the next assay is T6, IRS1 PTB (157–267) (human, UniProt P35568 157-267).
T6 sequence: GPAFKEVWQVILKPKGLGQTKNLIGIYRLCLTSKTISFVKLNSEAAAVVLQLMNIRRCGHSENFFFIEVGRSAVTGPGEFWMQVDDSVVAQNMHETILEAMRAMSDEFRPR

For another assay, the target named is T7, FRS2 PTB (8–136) (human, UniProt Q8WU20 8-136).
T7 sequence: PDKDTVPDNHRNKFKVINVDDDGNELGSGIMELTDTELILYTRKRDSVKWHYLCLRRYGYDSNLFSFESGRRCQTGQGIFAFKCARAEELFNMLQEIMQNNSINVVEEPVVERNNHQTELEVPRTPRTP

The next assay has as its target T8, DOK1 PTB (151–256) (human, UniProt Q99704 151-256).
T8 sequence: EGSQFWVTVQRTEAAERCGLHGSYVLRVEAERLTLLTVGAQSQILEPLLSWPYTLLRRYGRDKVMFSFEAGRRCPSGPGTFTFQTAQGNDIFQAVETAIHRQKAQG

Like-named read-outs stand apart in the source and are kept apart here. Square brackets hold non-standard residues; d marks the D form. * marks the point of attachment. FITC = O=C1OC2(c3ccc(O)cc3Oc3cc(O)ccc32)c2ccc(NC(=S)*)cc21; pY = N[C@@H](Cc1ccc(OP(=O)(O)O)cc1)C(=O)O; pS = N[C@@H](COP(=O)(O)O)C(=O)O

T3 sequence (P60520 2-115): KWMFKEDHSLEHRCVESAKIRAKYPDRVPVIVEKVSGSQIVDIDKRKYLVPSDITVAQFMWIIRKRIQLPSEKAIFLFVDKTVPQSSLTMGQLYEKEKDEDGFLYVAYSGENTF
Sequence of MAGI1 PDZ1 (1–106) (Q96QZ7 1-106): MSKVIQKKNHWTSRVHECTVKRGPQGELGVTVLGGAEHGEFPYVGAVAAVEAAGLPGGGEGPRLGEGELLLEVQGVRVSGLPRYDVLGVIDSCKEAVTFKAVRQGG
Sequence of SCRIB PDZ1 (718–814) (Q14160 718-814): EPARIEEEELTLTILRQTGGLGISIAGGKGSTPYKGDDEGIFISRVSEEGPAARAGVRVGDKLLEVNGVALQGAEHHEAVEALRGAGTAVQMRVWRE
Sequence of TLN2 PTB (309–401) (Q9Y4G6 309-401): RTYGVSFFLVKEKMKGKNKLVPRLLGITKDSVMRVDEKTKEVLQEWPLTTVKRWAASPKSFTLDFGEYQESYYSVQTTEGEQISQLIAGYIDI
Sequence of MAP1LC3C ATG8 (2–125) (Q9BXW4 2-125): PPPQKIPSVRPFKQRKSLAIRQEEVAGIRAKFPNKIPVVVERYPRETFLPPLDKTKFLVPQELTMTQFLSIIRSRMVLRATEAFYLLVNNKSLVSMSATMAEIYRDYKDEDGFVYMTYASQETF

One may read the Kd as the equilibrium constant for the complex coming apart. Molecule {FITC}-FDTEYQRLEAS-NH2 [FITC-labeled ATG9A(4–14) probe peptide] had a Kd with AP2 μ2 (160–435) of 1640 nM.

B1: NHERF3 PDZ2 (132–224) (domain or fragment)
chain: QPRLCYLVKEGGSYGFSLKTVQGKKGVYMTDITPQGVAMRAGVLADDHLIEVNGENVEDASHEEVVEKVKKSGSRVMFLLVDKETDKRHVEQK
On to B1, for which the dissociation constant (Kd) in assay [1] is greater than 100 µM.

Regarding {FITC}-DDDWTHLSSK-NH2 [FITC-labeled SQSTM1(335–344) probe peptide], the dissociation constant (Kd) with MAP1LC3C ATG8 (2–125) amounted to 330 nM; with MAP1LC3B ATG8 (2–119) [2], 1900 nM; in assay […]2 ATG8 (2–115) [3] it was 11 µM.

With B2, the Kd with TAX1BP3 PDZ (7–124), in the assay with SCRIB PDZ1 (718–814), in the assay with SNTA1 PDZ (84–171) and with MAGI1 PDZ1 (1–106) was greater than 100 µM each time.

With {FITC}-RSGENPYA[pS]IDISKGE-NH2 [FITC-labeled ACE2(775–790) peptide, pSer783], the Kd (with LYN SH2 (106–213); with MAP1LC3B ATG8 (2–119) [4]; in assay […]2 ATG8 (2–115) [5]) was greater than 100 µM in each case.

In the case of {FITC}-RSGENP[pY]ASIDISKGE-NH2 [FITC-labeled ACE2(775–790) peptide, pTyr781], the Kd (with MAP1LC3B ATG8 (2–119) [4]; in assay […]2 ATG8 (2–115) [5]) was greater than 100 µM each time.

B3: Mouse SNX17 FERM (109–388) (domain or fragment)
chain: TQQVPTEEVSLEVLLSNGQKVLVTVLTSDQTEDVLEAVAAKLDLPDDLIGYFSLFLVREKEDGAFSFVRKLQEFELPYVSVTSLRSQEYKIVLRKSYWDSAYDDDVMENRVGLNLLYAQTVSDIEHGWILVTKEQHRQLKSLQEKVSKKEFLRLAQTLRHYGYLRFDACVADFPEKDCPVVVSAGNSELSLQLRLPGQQLREGSFRVTRMRCWRVTSSVPLPSGGTSSPSRGRGEVRLELAFEYLMSKDRLQWVTITSPQAIMMSICLQSMVDELMVKKS
Regarding B3, in [6], the Kd is roughly 100 µM.

B4: TLN1 PTB (442–770) (domain or fragment)
chain: GVSFFLVKEKMKGKNKLVPRLLGITKECVMRVDEKTKEVIQEWNLTNIKRWAASPKSFTLDFGDYQDGYYSVQTTEGEQIAQLIAGYIDIILK
B4: the Kd in assay [6] was greater than 100 µM.

In the case of B5, the Kd with IRS1 PTB (157–267), with FRS2 PTB (8–136), with DOK1 PTB (151–256) and with TLN2 PTB (309–401) was greater than 100 µM in each case.

Regarding {FITC}-RSGENPYASIDISKGE-NH2 [FITC-labeled ACE2(775–790) peptide, unphosphorylated], the Kd (with LYN SH2 (106–213); with MAP1LC3B ATG8 (2–119) [4]; in assay […]2 ATG8 (2–115) [5]) was greater than 100 µM each time.

Values taken from paper PMC7928716 (Science Signaling, 2021).
